Test results reported in PMC3884107 (PLoS ONE, 2013).

How the values were obtained:
[1] = biological target: T1, human RON on 3T3-hRON cells (human, UniProt Q04912-1 25-1400); test: radioligand binding; competition of 125I-MSP with unlabeled MSP on 3T3-hRON cells, 4 h on ice; settings: one partner purified
T1 construct: human RON (Recepteur d'Origine Nantais, MST1R) expressed on the surface of 3T3-hRON cells; In the functional rows this molecule also stands for human RON on A2780-hRON, BxPC3, HCT15 and HPC5 cells; also called Recepteur d'Origine Nantais; MST1R; source: 3T3 cells stably transfected with human RON (3T3-hRON), on cells

[2] = biological target: T1, human RON on 3T3-hRON cells; test: radioligand binding; competition of 125I-MSP with unlabeled MSP (from 5 µM) on 150,000 3T3-hRON cells, 2 h at room temperature; DMEM, 1% BSA, 325 nM human IgG, 50 mM HEPES pH 7.2, 0.1% sodium azide; Scatchard analysis; settings: one partner purified
[3] = biological target: T2, RON-Fc (human RON Sema, PSI and IPT1 domains, E25-M682, Fc fusion with human IgG1) (human, UniProt Q04912-1 25-682); test: ELISA; RON-Fc (1 µg/ml) captured on plate-coated rabbit anti-human IgG Fc; MSP 1000 nM-0.2 pM, 1 h, room temperature; 50 mM HEPES pH 7.2, 150 mM NaCl, 5 mM CaCl2, 1% BSA, 0.1% Tween-20; bound MSP detected with anti-His-HRP; 4-parameter fit; settings: both partners purified
T2 construct: human RON (Recepteur d'Origine Nantais, MST1R), Sema, PSI and IPT1 domains, E25-M682; also called RON-Fc fusion protein; source: CHO cells; purified (MabSelect Sure, SEC)
T2 sequence (looked up): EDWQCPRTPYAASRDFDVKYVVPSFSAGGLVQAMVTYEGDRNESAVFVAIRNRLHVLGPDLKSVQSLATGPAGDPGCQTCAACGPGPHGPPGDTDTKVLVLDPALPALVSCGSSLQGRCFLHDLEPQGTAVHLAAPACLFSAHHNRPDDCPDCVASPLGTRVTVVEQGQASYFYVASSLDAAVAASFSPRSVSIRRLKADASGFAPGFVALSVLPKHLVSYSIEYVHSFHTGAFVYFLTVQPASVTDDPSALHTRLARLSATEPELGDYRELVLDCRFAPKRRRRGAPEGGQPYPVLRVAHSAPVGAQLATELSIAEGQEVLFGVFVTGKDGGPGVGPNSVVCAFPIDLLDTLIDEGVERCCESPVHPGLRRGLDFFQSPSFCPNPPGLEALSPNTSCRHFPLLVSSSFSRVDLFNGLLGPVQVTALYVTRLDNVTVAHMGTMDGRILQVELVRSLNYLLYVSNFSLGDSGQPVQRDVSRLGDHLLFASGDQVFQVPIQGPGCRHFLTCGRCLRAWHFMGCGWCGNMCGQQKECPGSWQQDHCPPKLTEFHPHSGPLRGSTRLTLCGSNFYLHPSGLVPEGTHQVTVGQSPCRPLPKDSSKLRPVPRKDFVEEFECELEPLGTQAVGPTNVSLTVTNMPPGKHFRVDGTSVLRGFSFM

[4] = biological target: T2, RON-Fc (human RON Sema, PSI and IPT1 …); test: BLI; RON-Fc (10 µg/ml) loaded on anti-human IgG Fc biosensors, Octet RED384; MSP, MSP β or scMSP 75-4.7 nM, 400 s association, 400 s dissociation, 30°C; global 1:1 fit, KD = koff/kon; settings: both partners purified
[5] = biological target: T3, RON Sema/PSI (human RON residues E25-P568) (human, UniProt Q04912-1 25-568); test: SPR; RON Sema/PSI amine-coupled to a CM5 chip, Biacore 3000; MSP, MSP β or scMSP injected 500-3.9 nM in HBS-P (10 mM HEPES pH 7.5, 150 mM NaCl, 0.005% P20), 25°C, 30 µl/min; global 1:1 Langmuir fit, KD = koff/kon; settings: both partners purified
T3 construct: human RON (Recepteur d'Origine Nantais, MST1R), Sema and PSI domains, E25-P568; Expressed with an N-terminal gp67 secretion signal; source: Trichoplusia ni insect cells, baculovirus; purified from the media (Ni-NTA, SEC)
T3 sequence (looked up): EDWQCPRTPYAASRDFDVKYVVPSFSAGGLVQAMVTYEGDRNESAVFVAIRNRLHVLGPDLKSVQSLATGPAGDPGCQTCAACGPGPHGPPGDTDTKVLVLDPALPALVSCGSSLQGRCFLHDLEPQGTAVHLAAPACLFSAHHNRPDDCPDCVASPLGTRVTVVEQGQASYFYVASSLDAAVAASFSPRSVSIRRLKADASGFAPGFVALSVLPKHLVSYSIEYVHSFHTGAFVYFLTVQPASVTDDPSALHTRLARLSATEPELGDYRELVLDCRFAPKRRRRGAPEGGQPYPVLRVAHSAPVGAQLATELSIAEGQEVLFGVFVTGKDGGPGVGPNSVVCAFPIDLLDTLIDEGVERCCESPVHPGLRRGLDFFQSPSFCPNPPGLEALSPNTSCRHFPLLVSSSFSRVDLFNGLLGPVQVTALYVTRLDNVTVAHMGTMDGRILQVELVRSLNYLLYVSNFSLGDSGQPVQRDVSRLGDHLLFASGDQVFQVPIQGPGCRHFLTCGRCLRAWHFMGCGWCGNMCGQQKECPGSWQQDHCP

[6] = biological target: T2, RON-Fc (human RON Sema, PSI and IPT1 …); test: SPR; RON-Fc captured (50-100 RU) on immobilised anti-human Fc surfaces, CM5 chip, Biacore 3000; MSP, MSP β or scMSP injected 500-3.9 nM in HBS-P (10 mM HEPES pH 7.5, 150 mM NaCl, 0.005% P20), 25°C, 30 µl/min; global 1:1 Langmuir fit, KD = koff/kon; settings: both partners purified

B1: MSP 689R (active two-chain macrophage stimulating protein; Q19-G711; C672A) (ligand, human)
chain 1: QRSPLNDFQVLRGTELQHLLHAVVPGPWQEDVADAEECAGRCGPLMDCRAFHYNVSSHGCQLLPWTQHSPHTRLRRSGRCDLFQKKDYVRTCIMNNGVGYRGTMATTVGGLPCQAWSHKFPNDHKYTPTLRNGLEENFCRNPDGDPGGPWCYTTDPAVRFQSCGIKSCREAACVWCNGEEYRGAVDRTESGRECQRWDLQHPHQHPFEPGKFLDQGLDDNYCRNPDGSERPWCYTTDPQIEREFCDLPRCGSEAQPRQEATTVSCFRGKGEGYRGTANTTTAGVPCQRWDAQIPHQHRFTPEKYACKDLRENFCRNPDGSEAPWCFTLRPGMRAAFCYQIRRCTDDVRPQDCYHGAGEQYRGTVSKTRKGVQCQRWSAETPHKPQFTFTSEPHAQLEENFCRNPDGDSHGPWCYTMDPRTPFDYCALRRCADDQPPSILDPPDQVQFEKCGKRVDRLDQRRSKLR
chain 2: VVGGHPGNSPWTVSLRNRQGQHFCGGSLVKEQWILTARQCFSSCHMPLTGYEVWLGTLFQNPQHGEPSLQRVPVAKMVCGPSGSQLVLLKLERSVTLNQRVALICLPPEWYVVPPGTKCEIAGWGETKGTGNDTVLNVALLNVISNQECNIKHRGRVRESEMCTEGLLAPVGACEGDYGGPLACFTHNAWVLEGIIIPNRVCARSRWPAVFTRVSVFVDWIHKVMRLG
notes: MSP alpha-chain of human macrophage stimulating protein: from Q19 of the pro-MSP construct to R483 (cleavage between R483 and V484); disulfide-linked to the beta-chain; Made as single-chain pro-MSP (Q19-G711; C672A; C-terminal 6-His) and cleaved by sHepsin; For the radioligand assay part of the protein was iodinated with 125I (Iodogen); also called HGFL; MST1; source: CHO cells, transiently …
Binder B1 has a Kd [1] of 23 nM, a Kd [2] of 12.6 nM and an EC50 [3] of 0.1 nM.

B2: MSP β 689R (V484-G711; C588S, C672A) (domain or fragment, human, UniProt P26927 484-711, looked up)
chain: VVGGHPGNSPWTVSLRNRQGQHFCGGSLVKEQWILTARQCFSSCHMPLTGYEVWLGTLFQNPQHGEPSLQRVPVAKMVCGPSGSQLVLLKLERSVTLNQRVALISLPPEWYVVPPGTKCEIAGWGETKGTGNDTVLNVALLNVISNQECNIKHRGRVRESEMCTEGLLAPVGACEGDYGGPLACFTHNAWVLEGIIIPNRVCARSRWPAVFTRVSVFVDWIHKVMRLG
notes: source: CHO cells, transiently transfected, secreted; purified (Ni-NTA, SEC); not shown: His6, C-terminal, kept
B2 was tested, and the Kd [4] was 7.5 nM, the koff [4] was 0.0035 s⁻¹ and the kon [4] was 470000 M⁻¹ s⁻¹. For the same binder, the Kd [5] was 6.6 nM, the koff [5] was 0.0184 s⁻¹ and the kon [5] was 2.71e+06 M⁻¹ s⁻¹. For the same binder, the EC50 [3] was 0.05 nM, the Kd [6] was 9.6 nM and the koff [6] was 0.0175 s⁻¹. The kon [6] was 1.81e+06 M⁻¹ s⁻¹.

B3: MSP β 672C 689R (V484-G711; C588S, without C672A) (domain or fragment, human, UniProt P26927 484-711, looked up)
chain: VVGGHPGNSPWTVSLRNRQGQHFCGGSLVKEQWILTARQCFSSCHMPLTGYEVWLGTLFQNPQHGEPSLQRVPVAKMVCGPSGSQLVLLKLERSVTLNQRVALISLPPEWYVVPPGTKCEIAGWGETKGTGNDTVLNVALLNVISNQECNIKHRGRVRESEMCTEGLLAPVGACEGDYGGPLACFTHNCWVLEGIIIPNRVCARSRWPAVFTRVSVFVDWIHKVMRLG
notes: source: CHO cells, transiently transfected, secreted; purified (Ni-NTA, SEC)
B3 showed a Kd [6] of 6.3 nM, a koff [6] of 0.0066 s⁻¹ and a kon [6] of 860000 M⁻¹ s⁻¹.

B4: MSP β 689C (V484-G711; C588S, C672A; 689C) (domain or fragment, human, UniProt P26927 484-711, looked up)
chain: VVGGHPGNSPWTVSLRNRQGQHFCGGSLVKEQWILTARQCFSSCHMPLTGYEVWLGTLFQNPQHGEPSLQRVPVAKMVCGPSGSQLVLLKLERSVTLNQRVALISLPPEWYVVPPGTKCEIAGWGETKGTGNDTVLNVALLNVISNQECNIKHRGRVRESEMCTEGLLAPVGACEGDYGGPLACFTHNAWVLEGIIIPNRVCARSCWPAVFTRVSVFVDWIHKVMRLG
notes: as for B2
B4 showed a Kd [4] of 9.1 nM, a koff [4] of 0.0093 s⁻¹ and a kon [4] of 1.05e+06 M⁻¹ s⁻¹. For the same binder, the Kd [5] was 9.1 nM, the koff [5] was 0.0134 s⁻¹ and the kon [5] was 1.46e+06 M⁻¹ s⁻¹. The EC50 [3] was 0.1 nM, the Kd [6] was 9 nM and the koff [6] was 0.0419 s⁻¹. For the same binder, the kon [6] was 4.42e+06 M⁻¹ s⁻¹.

B5: MSP β 672C 689C (V484-G711; C588S, without C672A; 689C) (domain or fragment, human, UniProt P26927 484-711, looked up)
chain: VVGGHPGNSPWTVSLRNRQGQHFCGGSLVKEQWILTARQCFSSCHMPLTGYEVWLGTLFQNPQHGEPSLQRVPVAKMVCGPSGSQLVLLKLERSVTLNQRVALISLPPEWYVVPPGTKCEIAGWGETKGTGNDTVLNVALLNVISNQECNIKHRGRVRESEMCTEGLLAPVGACEGDYGGPLACFTHNCWVLEGIIIPNRVCARSCWPAVFTRVSVFVDWIHKVMRLG
notes: as for B3
B5 was tested, and the Kd [6] was 9.7 nM, the koff [6] was 0.0075 s⁻¹ and the kon [6] was 770000 M⁻¹ s⁻¹.

B6: MSP 689C (active two-chain macrophage stimulating protein; Q19-G711; C672A; 689C) (ligand, human)
chain 1: QRSPLNDFQVLRGTELQHLLHAVVPGPWQEDVADAEECAGRCGPLMDCRAFHYNVSSHGCQLLPWTQHSPHTRLRRSGRCDLFQKKDYVRTCIMNNGVGYRGTMATTVGGLPCQAWSHKFPNDHKYTPTLRNGLEENFCRNPDGDPGGPWCYTTDPAVRFQSCGIKSCREAACVWCNGEEYRGAVDRTESGRECQRWDLQHPHQHPFEPGKFLDQGLDDNYCRNPDGSERPWCYTTDPQIEREFCDLPRCGSEAQPRQEATTVSCFRGKGEGYRGTANTTTAGVPCQRWDAQIPHQHRFTPEKYACKDLRENFCRNPDGSEAPWCFTLRPGMRAAFCYQIRRCTDDVRPQDCYHGAGEQYRGTVSKTRKGVQCQRWSAETPHKPQFTFTSEPHAQLEENFCRNPDGDSHGPWCYTMDPRTPFDYCALRRCADDQPPSILDPPDQVQFEKCGKRVDRLDQRRSKLR
chain 2: VVGGHPGNSPWTVSLRNRQGQHFCGGSLVKEQWILTARQCFSSCHMPLTGYEVWLGTLFQNPQHGEPSLQRVPVAKMVCGPSGSQLVLLKLERSVTLNQRVALICLPPEWYVVPPGTKCEIAGWGETKGTGNDTVLNVALLNVISNQECNIKHRGRVRESEMCTEGLLAPVGACEGDYGGPLACFTHNAWVLEGIIIPNRVCARSCWPAVFTRVSVFVDWIHKVMRLG
notes: MSP alpha-chain of human macrophage stimulating protein: from Q19 of the pro-MSP construct to R483 (cleavage between R483 and V484); disulfide-linked to the beta-chain; Made as single-chain pro-MSP (Q19-G711; C672A; C-terminal 6-His) and cleaved by sHepsin; For the radioligand assay part of the protein was iodinated with 125I (Iodogen); source: CHO cells, transiently transfected, secreted; …
B6 showed a Kd [1] of 25.7 nM, a Kd [2] of 13 nM and an EC50 [3] of 0.2 nM.
